± gives the standard deviation of the averaged measurements.
What was measured:
Saccharomyces cerevisiae [1] = experiment: protein stability index of tFT-peptide fusion in wild type (PSI (0-1 scale)); higher = more stable (slower turnover); conditions: genetic background: wild type
Saccharomyces cerevisiae [2] = experiment: protein stability index of tFT-peptide fusion (C-terminal peptide) (PSI (0-1 scale)); higher = more stable (slower turnover)
Procedure: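 MPS profiling in S. cerevisiae of the tFT-X12 degron library: putative degron peptides plus stable controls, 12 aa, fused to the C-terminus of a sfGFP-mCherry timer. Cells are FACS-sorted into 8 mCherry/sfGFP bins and deep-sequenced. PSI runs from 0 (unstable) to 1 (stable). Backgrounds are wild type, das1Δ and doa10Δ at 30 °C, and wild type, das1Δ, cdc34-1 and cdc53-1 at 37 °C; 2-3 technical replicates each.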

Saccharomyces cerevisiae [3] = experiment: as above; conditions: genetic background: wild type; temperature: 30 C
Saccharomyces cerevisiae [4] = experiment: protein stability index of tFT-peptide fusion in deletion strain of DOA10 (PSI (0-1 scale)); higher = more stable (slower turnover)
Procedure: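 MPS profiling in S. cerevisiae of two library types built from selected 12-aa C-degron peptides (IN1, IN2, LN1, LN3, VN2, R1-R5, W1-W3, Atg1 and Rpa12 C-termini): saturation mutagenesis libraries and C-terminal +1 capping libraries (13 aa). Each peptide is fused to the C-terminus of a sfGFP-mCherry timer, after a GGGS linker. Cells are FACS-sorted into 8 mCherry/sfGFP bins and sequenced. PSI runs from 0 (unstable) to 1 (stable), measured once in wild type and in the das1Δ or doa10Δ background.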
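For protein stability index of tFT-peptide fusion (C-terminal peptide) in this document: PSI is a weighted mean of sequencing reads over stability bins, variants kept only with over 10 reads, mCherry proximal and sfGFP distal, peptide attached via GGGS linker.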
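For protein stability index of tFT-peptide fusion in deletion strain of DOA10 in this document: PSI per variant is the weighted mean of its sequencing read distribution over the sorted stability bins, counting only variants with over 10 reads summed across bins.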
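For protein stability index of tFT-peptide fusion in wild type in this document: PSI derived as read-weighted mean over the 8 sorting bins, only variants exceeding 10 total reads kept, mCherry placed adjacent to the peptide and sfGFP distal.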

Row | Sequence | protein stability index (Saccharomyces cerevisiae [1]) | protein stability index (Saccharomyces cerevisiae [4]) | other results
1 | GLYMCSVGCWFR | 0.264 | 0.629 | protein stability index (Saccharomyces cerevisiae [2]; genetic background: cdc34-1, temperature: 37 C): 0.104 ± 0.0033; protein stability index (Saccharomyces cerevisiae [2]; genetic background: cdc53-1, temperature: 37 C): 0.0717 ± 0.0099; protein stability index (Saccharomyces cerevisiae [2]; genetic background: das1 deletion, temperature: 30 C): 0.223 ± 0.033; protein stability index (Saccharomyces cerevisiae [2]; genetic background: das1 deletion, temperature: 37 C): 0.2809 ± 0.001; protein stability index (Saccharomyces cerevisiae [2]; genetic background: doa10 deletion, temperature: 30 C): 0.586 ± 0.011; protein stability index (Saccharomyces cerevisiae [2]; genetic background: wild type, temperature: 30 C): 0.231 ± 0.018; protein stability index (Saccharomyces cerevisiae [2]; genetic background: wild type, temperature: 37 C): 0.252 ± 0.0062; protein stability index (Saccharomyces cerevisiae [3]): 0.408 ± 0.085
2 | RKTRLDAIYFRI | 0.49 | 0.628 | 
3 | CLVSLHILLFFR | 0.144 | 0.292 | 
4 | CLVSLPILLDFR | 0.553 | 0.643 | 
5 | RSLRVLLPLYCR | 0.266 | 0.457 | 
6 | AITDPMCPLLLR | 0.603 | 0.693 | 
7 | AITLPMCPLLTR | 0.561 | 0.606 | 
8 | GLYMCSVGCWFRW | 0.231 | 0.621 | 
9 | GLYMCSVGMWFR | 0.307 | 0.577 | 
10 | RVTRLDAIYFRIF | 0.0593 | 0.0962 | 
11 | RVTRLDAIYFRS | 0.641 | 0.72 | 
12 | CLVSLPILLFWR | 0.0447 | 0.638 | 
13 | GLYMCSVGCWGR | 0.625 | 0.659 | 
14 | RSLRVLLPLYYR | 0.375 | 0.657 | 
15 | RVTRLWAIYFRI | 0.167 | 0.377 | 
16 | ILVSLPILLFFR | 0.111 | 0.545 | 
17 | RSLRVLLPLYFV | 0.25 | 0.428 | 
18 | CLVSLPILLFFL | 0.293 | 0.45 | 
19 | GLYMCSYGCWFR | 0.299 | 0.677 | 
20 | GLYMCIVGCWFR | 0.214 | 0.364 | 
21 | GLYMCSVGCAFR | 0.614 | 0.629 | 
22 | CLVSLPILLFFRW | 0.0557 | 0.473 | 
23 | CLVSVPILLFFR | 0.064 | 0.565 | 
24 | AITLPMCPLLLD | 0.608 | 0.684 | 
25 | RVTRLAAIYFRI | 0.173 | 0.38 | 

Row | Sequence | protein stability index (Saccharomyces cerevisiae [1]) | protein stability index (Saccharomyces cerevisiae [4]) | other results
26 | RVTRLSAIYFRI | 0.22 | 0.458 | 
27 | CLVSLPILLFFRQ | 0.0783 | 0.362 | 
28 | AITLPMCPKLLR | 0.643 | 0.671 | 
29 | GLYMCSVGCWFE | 0.474 | 0.512 | 
30 | AITLPMCELLLR | 0.511 | 0.676 | 
31 | CLVSWPILLFFR | 0.0554 | 0.595 | 
32 | RVTPLDAIYFRI | 0.547 | 0.675 | 
33 | AIYLPMCPLLLR | 0.268 | 0.617 | 
34 | CLVSLPQLLFFR | 0.0822 | 0.655 | 
35 | RVTRLDAIYFRG | 0.664 | 0.701 | 
36 | RSLRVLLPLAFR | 0.37 | 0.652 | 
37 | AITLPMCPLVLR | 0.233 | 0.646 | 
38 | GLYMCSVGCWFP | 0.607 | 0.636 | 
39 | RVTRLDAAYFRI | 0.653 | 0.704 | 
40 | CLVSLPILLFKR | 0.413 | 0.665 | 
41 | GLYMCSVGIWFR | 0.165 | 0.409 | 
42 | KLVSLPILLFFR | 0.0816 | 0.612 | 
43 | RVTRLDAIYFRH | 0.604 | 0.716 | 
44 | AITLPMCPLHLR | 0.566 | 0.68 | 
45 | GLYMCSVGDWFR | 0.677 | 0.689 | 
46 | RVTRLDAIYFRIQ | 0.218 | 0.256 | 
47 | GLYMCSVACWFR | 0.228 | 0.441 | 
48 | AITLPMQPLLLR | 0.238 | 0.639 | 
49 | AITLPMCPLLRR | 0.62 | 0.717 | 
50 | GLYMCSVGCWFRS | 0.267 | 0.521 | 

Row | Sequence | protein stability index (Saccharomyces cerevisiae [1]) | protein stability index (Saccharomyces cerevisiae [4]) | other results
51 | RSLRVLLPLYFW | 0.339 | 0.589 | 
52 | CLVSLPILLFFRV | 0.0545 | 0.413 | 
53 | CLVSLPILLFFRK | 0.115 | 0.57 | 
54 | CLVSLPILLFIR | 0.0496 | 0.46 | 
55 | AITLPMCPLQLR | 0.608 | 0.68 | 
56 | RVTRLDAIYFEI | 0.69 | 0.725 | 
57 | RVTVLDAIYFRI | 0.516 | 0.651 | 
58 | RVTHLDAIYFRI | 0.471 | 0.645 | 
59 | AITLPMCPLILR | 0.238 | 0.656 | 
60 | GLAMCSVGCWFR | 0.268 | 0.661 | 
61 | AITEPMCPLLLR | 0.593 | 0.648 | 
62 | CLVSLPILLFFV | 0.206 | 0.385 | 
63 | RVTRLDAIYRRI | 0.684 | 0.721 | 
64 | AITLPMTPLLLR | 0.229 | 0.644 | 
65 | GLYMCSMGCWFR | 0.321 | 0.676 | 
66 | AIKLPMCPLLLR | 0.276 | 0.652 | 
67 | RVTRLVAIYFRI | 0.19 | 0.394 | 
68 | ACTLPMCPLLLR | 0.318 | 0.678 | 
69 | GSYMCSVGCWFR | 0.411 | 0.678 | 
70 | CLVSLPPLLFFR | 0.0903 | 0.661 | 
71 | CLVSLPIYLFFR | 0.0617 | 0.607 | 
72 | GLYMCSLGCWFR | 0.283 | 0.658 | 
73 | AITLPMCPLLLM | 0.505 | 0.545 | 
74 | RSLRVLFPLYFR | 0.196 | 0.684 | 
75 | CLVSLPILLFHR | 0.481 | 0.637 | 

Row | Sequence | protein stability index (Saccharomyces cerevisiae [1]) | protein stability index (Saccharomyces cerevisiae [4]) | other results
76 | GLYMCSVGCWNR | 0.618 | 0.64 | 
77 | GLYMCSVGCEFR | 0.594 | 0.625 | 
78 | RSLRVLCPLYFR | 0.305 | 0.652 | 
79 | AITLPMCPLLSR | 0.573 | 0.594 | 
80 | RSLRPLLPLYFR | 0.316 | 0.688 | 
81 | CLVSLPILLAFR | 0.115 | 0.594 | 
82 | AYTLPMCPLLLR | 0.171 | 0.657 | 
83 | RVTRLDAIYFII | 0.0744 | 0.111 | 
84 | CLVSLPILLFYR | 0.116 | 0.585 | 
85 | GLYMCSVGCWFRG | 0.334 | 0.635 | 
86 | RSLRVLMPLYFR | 0.254 | 0.697 | 
87 | CLWSLPILLFFR | 0.0887 | 0.594 | 
88 | AITLPRCPLLLR | 0.265 | 0.662 | 
89 | CLVSLSILLFFR | 0.183 | 0.286 | 
90 | AITLPMCDLLLR | 0.639 | 0.675 | 
91 | GLYMCSVGCQFR | 0.618 | 0.647 | 
92 | RETRLDAIYFRI | 0.545 | 0.667 | 
93 | CLVSLPILLFFQ | 0.313 | 0.53 | 
94 | RSARVLLPLYFR | 0.336 | 0.687 | 
95 | CLVSLPILGFFR | 0.625 | 0.661 | 
96 | CLVSLPILSFFR | 0.581 | 0.658 | 
97 | RSLRVLLPLYFRR | 0.315 | 0.675 | 

Reference: the supplement of paper PMC10724198
